The results in this text go back to patent US20140154255A1 (AbbVie / Abbott, published 2014).

Changes are numbered by the printed parent chain. In names and notes the source's numbering stands. A value given as a limit tells only on which side of the number the result lay.

The target of experiment [1] is T1, human VEGF-A residues 27-191 of Accession #AAV38412 (human, UniProt P15692 27-191).
T1 construct: range 27-191
Put plainly: BIAcore SPR [continued]. On the procedure: (§1) The binding kinetics and affinity of the antibodies for VEGF (human VEGF-A residues 27-191 of Accession #AAV38412) was determined by using a BIAcore T200 surface plasmon resonance system (BIAcore, GE Healthcare, Piscataway, N.J.). Coupling running buffer was HBS-EP+ running buffer (10 mM HEPES, 150 mM sodium chloride, 3 mM EDTA 0.05% P-20, pH 7.4); assay running buffer was HBS-EP+ with 300 mM sodium chloride and 0.1 mg/mL BSA (Sigma A7906). Polyclonal goat anti-human Fc (Thermo Scientific prod#31125) was first immobilized to the biosensor surface in 10 mM sodium acetate, pH 4.5 using standard BIAcore amine coupling reagents (N-ethyl-N′-dimethylamino-propylcarbodiimide, EDC; N-hydroxysuccinimide, NHS; and ethanolamine HCl, pH 8.5). For binding kinetics assay a series of cycles were performed, each cycle consisted of 1) mAb capture, 2) Ag or buffer injection, 3) dissociation phase and 4) regeneration. Briefly, anti-VEGF antibodies were captured on parallel surfaces at a low flow rate of 10 μL/min. Capture levels were kept low to minimize avidity due to the dimeric nature of VEGF. No capture of the antibody was made on the reference surface to serve for primary referencing and as a negative control. Subsequently, VEGF or buffer only was injected to all flow cells at a flow rate of 80 μL/min for three minutes to monitor association followed by a 20-minute flow of assay rinning buffer at a flow rate of 80 μL/min to monitor dissociation. […] At the end of each cycle the surface was regenerated with 10 mM glycine, pH 1.5 at a flow rate of 60 μL/min in pulses of 60 and 10 sec. Binding data were fit to the 1:1 Langmuir model with mass transport term included using Biacore T200 Evaluation Software to determine the binding constants.
A general note: SPR reads the build-up and loss of mass on a sensor chip optically.

Experiment [2] addresses T1, human VEGF-A residues 27-191 of …. Put plainly: BIAcore SPR, KD WT/KD mutant [continued]. As to the method:
as §1

In experiment [3] the target is Alexa647-conjugated rHuVEGF (Invitrogen Cat #PHG0143) (human, UniProt P15692-4 27-191, limits assumed, Alexa647-conjugated). Put plainly: flow cytometry, surface-bound antibody on 293c18 cells, 3 nM Alexa647-rHuVEGF. Also on record: reference not given here. As to the method:
Data were gathered by way of flow cytometry using a DakoCytomation CyAn ADP flow cytometer and was analyzed using Treestar's FloJo analysis program.
A general note: In flow cytometry, cells or beads pass a laser one at a time.

In experiment [4] the target is T1, human VEGF-A residues 27-191 of …. The experiment is described as follows: BIAcore SPR. As to the method:
as §1

The target of experiment [5] is T2, unlabeled human VEGF (ELISA coat) (human, UniProt P15692-4 27-191, limits assumed). The experiment is described as follows: ELISA 1 hr, EC50 WT/EC50 mutant. As to the method:
(§2) To detect identified variants binding to antigen, ELISA plates (Nunc-Immuno MaxiSorp plates, Nalge Nunc, Rochester, N.Y.) were coated overnight at 4° C. with unlabeled human VEGF at 1 μg/mL in 0.2 M sodium carbonate-bicarbonate buffer (pH 9.4, Pierce, Rockford, Ill.). The plates were then blocked with SuperBlock Blocking Buffer (Pierce, Rockford, Ill.) for 30 min and washed with Washing Buffer (PBS containing 0.1% Tween 20). All the washing steps were performed for three times. […] The plates were washed and 100 μL of goat anti-human kappa HRP-conjugated antibody (Southern Biotech, Birmingham, Ala.) diluted at 1:1000 in ELISA buffer was added to each well. After 30 minutes of incubation, plates were washed and bound antibodies were detected by addition of TMB 1 Component HRP Microwell substrate (BioFx #TMBW-1000-01). The reaction was terminated by addition of 100 μL/well of 650 nM Stop Reagent for TMB Microwell substrate and the absorbance was measured at 650 nm using a VERSAmax microplate reader (Molecular Devices, Sunnyvale, Calif.). Data were fitted using nonlinear regression with the software […]
(In general: In an ELISA, binding on a coated surface is turned into a signal by an enzyme label.)

Experiment [6] addresses T1, human VEGF-A residues 27-191 of …. The experiment is described as follows: BIAcore SPR, KD WT/KD mutant. As to the method:
as §1

The target is the same in experiment [7]. Put plainly: BIAcore SPR; kd of this row is at the detection limit. As to the method:
(§3) The binding kinetics and affinity of the antibodies for VEGF (human VEGF-A residues 27-191 of Accession #AAV38412) was determined by using a BIAcore T200 surface plasmon resonance system (BIAcore, GE Healthcare, Piscataway, N.J.). Coupling running buffer was HBS-EP+ running buffer (10 mM HEPES, 150 mM sodium chloride, 3 mM EDTA 0.05% P-20, pH 7.4); assay running buffer was HBS-EP+ with 300 mM sodium chloride and 0.1 mg/mL BSA (Sigma A7906). Polyclonal goat anti-human Fc (Thermo Scientific prod#31125) was first immobilized to the biosensor surface in 10 mM sodium acetate, pH 4.5 using standard BIAcore amine coupling reagents (N-ethyl-N′-dimethylamino-propylcarbodiimide, EDC; N-hydroxysuccinimide, NHS; and ethanolamine HCl, pH 8.5). For binding kinetics assay a series of cycles were performed, each cycle consisted of 1) mAb capture, 2) Ag or buffer injection, 3) dissociation phase and 4) regeneration. Briefly, anti-VEGF antibodies were captured on parallel surfaces at a low flow rate of 10 μL/min. Capture levels were kept low to minimize avidity due to the dimeric nature of VEGF. No capture of the antibody was made on the reference surface to serve for primary referencing and as a negative control. […]

Experiment [8] has as its target T2, unlabeled human VEGF (ELISA coat). Put plainly: ELISA overnight, EC50 WT/EC50 mutant. On the procedure:
as §2

In experiment [9] the target is T1, human VEGF-A residues 27-191 of …. The experiment is described as follows: BIAcore SPR; * detection limit. On the procedure:
as §3

The target in experiment [10] is T3, VEGF (R&D systems, Minneapolis, Minn.) (UniProt P15692-4 27-191, limits assumed). The experiment is described as follows: SPR (BIAcore 2000/3000), antibody captured by anti-human Fc, VEGF as analyte, 1:1 Langmuir fit; variant corresponding to SEQ ID NO:82, the best of the variants. As to the method:
(§4) RL was kept low to minimize avidity due to the dimeric nature of VEGF. No capture of the antibody was made on the reference surface to serve as a negative control. Subsequently, VEGF was injected to all flow cells at a flow rate of 50 μL/min for two minutes to monitor association followed by a 25-minute flow of HBS-P running buffer (10 mM HEPES, 150 mM sodium chloride, 0.005% P-20, pH 7.4) to monitor the dissociation phase. At each cycle, VEGF, in 6 different concentrations of VEGF ranging between 0 nM and 512 nM and at four-fold increments, was injected over the surface. […] Binding data were fit to the 1:1 Langmuir model to extract binding constants from the BIAevaluate software. Double referencing was applied in each analysis to eliminate background responses from the reference surface and buffer only control. All the binding kinetics data were analyzed at least three separate determinations.

The target in experiment [11] is T3, VEGF (R&D systems, Minneapolis, Minn.). The experiment is described as follows: BIAcore SPR, mutant/WT. As to the method: as §4
For experiment [12] the target is unchanged. Put plainly: BIAcore SPR. On the procedure: as §4
Experiment [13] shares this target. Put plainly: BIAcore SPR, WT/mutant. On the procedure:
as §4

Experiment [14] shares this target. Put plainly: BIAcore SPR, improvement over WT. On the procedure: as §4

Alexa647-conjugated rHuVEGF (Invitrogen Cat #PHG0143), sequence (P15692 other isoform, or with tags, fused parts or gaps limits assumed): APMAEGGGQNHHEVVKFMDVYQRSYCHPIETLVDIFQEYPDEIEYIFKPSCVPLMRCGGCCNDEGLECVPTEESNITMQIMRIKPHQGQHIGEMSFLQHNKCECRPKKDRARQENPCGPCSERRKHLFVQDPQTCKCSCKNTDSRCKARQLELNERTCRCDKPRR
T1 sequence (P15692 other isoform, or with tags, fused parts or gaps limits assumed): as above
T3 sequence (P15692 other isoform, or with tags, fused parts or gaps limits assumed): as above
T2 sequence (P15692 other isoform, or with tags, fused parts or gaps limits assumed): as above

B1: H97 F (SS DLL4-VEGF DVD-Ig) (bispecific antibody)
VH: EVQLVESGGGLVQPGGSLRLSCAASGFTFSNFPMAWVRQAPGKGLEWVATISSSDGTTYYRDSVKGRFTISRDNAKNSLYLQMNSLRAEDTAVYYCARGYYNSPFAYWGQGTLVTVSSASTKGPEVQLVESGGGLVQPGGSLRLSCAASGYTFTNYGMNWVRQAPGKGLEWVGWINTYTGEPTYAADFKRRFTFSLDTSKSTAYLQMNSLRAEDTAVYYCAKYPFYYGSSHWYFDVWGQGTLVTVSS
VL: DIQMTQSPSSLSASVGDRVTITCRASEDIYSNLAWYQQKPGKAPKLLIYDTNNLADGVPSRFSGSGSGTDFTLTISSLQPEDFATYYCQQYNNYPPTFGQGTKLEIKRTVAAPDIQMTQSPSSLSASVGDRVTITCSASQDISNYLNWYQQKPGKAPKVLIYFTSSLHSGVPSRFSGSGSGTDFTLTISSLQPEDFATYYCQQYSTVPWTFGQGTKVEIK
notes: also called SS DLL4-VEGF DVD-Ig variant H97F
In [1], B1 yielded a Kd of 11 nM, an off-rate constant (koff) of 8.15e-05 s⁻¹ and a kon of 7210 M⁻¹ s⁻¹. This molecule showed an affinity improvement in experiment [2] of 0.8 fold.

B2: N31 W (SS DLL4-VEGF DVD-Ig) (bispecific antibody)
VH: B1 VH with N155W, F225H
VL: B1 VL
notes: also called SS DLL4-VEGF DVD-Ig variant N31W
Turning to B2, in experiment [1], the Kd turned out to be 13 nM, the koff came to 6.92e-05 s⁻¹ and the association rate constant (kon) is 5500 M⁻¹ s⁻¹. In experiment [2], this molecule registered an affinity improvement of 0.9 fold.

B3: T30 W (SS DLL4-VEGF DVD-Ig) (bispecific antibody)
VH: B1 VH with T154W, F225H
VL: B1 VL
notes: also called SS DLL4-VEGF DVD-Ig variant T30W
For B3, in experiment [1], the affinity, expressed as Kd, was 16 nM; the off-rate (koff) came out at 0.000143 s⁻¹; the on-rate (kon) stood at 9120 M⁻¹ s⁻¹. The affinity improvement in experiment [2] stood at 0.8 fold.

B4: S100a A (SS DLL4-VEGF DVD-Ig) (bispecific antibody)
VH: B1 VH with F225H, S229A
VL: B1 VL
notes: also called SS DLL4-VEGF DVD-Ig variant S100aA
For the molecule B4, in experiment [1], the dissociation constant Kd was found to be 11 nM, the koff stood at 0.000124 s⁻¹ and the kon is 11700 M⁻¹ s⁻¹. In experiment [2], the affinity improvement was found to be 0.8 fold.

B5: S100a T (SS DLL4-VEGF DVD-Ig) (bispecific antibody)
VH: B1 VH with F225H, S229T
VL: B1 VL
notes: also called SS DLL4-VEGF DVD-Ig variant S100aT
In experiment [1], B5 displayed an equilibrium dissociation constant (Kd) of 7.6 nM, a dissociation rate constant (koff) of 7.33e-05 s⁻¹ and a kon of 9630 M⁻¹ s⁻¹. This molecule yielded an affinity improvement in [2] of 1.2 fold.

B6: VL T51A (antibody, V domains shown)
VH: EVQLVESGGGLVQPGGSLRLSCAASGYTFTNYGMNWVRQAPGKGLEWVGWINTYTGEPTYAADFKRRFTFSLDTSKSTAYLQMNSLRAEDTAVYYCAKYPHYYGSSHWYFDVWGQGTLVTVSS
VL: DIQMTQSPSSLSASVGDRVTITCSASQDISNYLNWYQQKPGKAPKVLIYFASSLHSGVPSRFSGSGSGTDFTLTISSLQPEDFATYYCQQYSTVPWTFGQGTKVEIKR
For the molecule B6, the MFI in experiment [3] amounted to 296.

B7: VH K64Q (antibody, V domains shown)
VH: B6 VH with K65Q
VL: DIQMTQSPSSLSASVGDRVTITCSASQDISNYLNWYQQKPGKAPKVLIYFTSSLHSGVPSRFSGSGSGTDFTLTISSLQPEDFATYYCQQYSTVPWTFGQGTKVEIK
notes: copies: 2 + 2
In [3], B7 showed an MFI of 230.

B8: VH H97E.Y98F (antibody, V domains shown)
VH: B6 VH with H101E, Y102F
VL: B7 VL
notes: copies: 2 + 2
For the molecule B8, in [3], the MFI is 310.

B9: VH Y53F.K64Q (antibody, V domains shown)
VH: B6 VH with Y54F, K65Q
VL: B7 VL
notes: copies: 2 + 2
On to B9, for which, in experiment [3], the MFI was found to be 217.

B10: H97 F (anti-VEGF IgG) (antibody, V domains shown)
VH: B6 VH with H101F
VL: B7 VL
notes: copies: 2 + 2
In turn, B10 showed a kon in experiment [4] of 59000 M⁻¹ s⁻¹. Further, the “ELISA 1hr binding” value in experiment [5] was determined as 2 fold. The same molecule came in with an affinity improvement in experiment [6] of 2.5 fold. This molecule came in with an equilibrium dissociation constant (Kd) in experiment [7] of at most 0.17 nM. Also, the ELISA o/n binding in experiment [8] is 2.3 fold. Besides, in experiment [9], the koff is at most 1e-05 s⁻¹.

B11: VH K64S (antibody, V domains shown)
VH: B6 VH with K65S
VL: B7 VL
notes: copies: 2 + 2
The molecule B11 showed an MFI in experiment [3] of 168.

B12: bevacizumab variant corresponding to SEQ ID NO:82 (antibody, V domains shown)
VH: B6 VH with N31F, H101D, Y103D, S105G
VL: B6 VL with A51T
Regarding B12, the Kd in [10] was 0.08 nM. In experiment [11], this molecule had a Δkon of 11.6 fold. For the same molecule, in [12], binding was characterised by a dissociation constant (Kd) of 0.0827 nM, the koff turned out to be 0.000172 s⁻¹ and the kon worked out at 2.08e+06 M⁻¹ s⁻¹. The Δkoff in experiment [13] stood at 2 fold. In addition, the ΔKD in experiment [14] turned out to be 23.8 fold.

One may read the Kd as the free concentration of one partner at which half of the binding sites on the other are occupied at equilibrium, for simple one-to-one binding. As a reminder, the koff is a measure of how fast the partners let go of each other. Broadly, the kon is the second-order rate constant of association.
